These results are taken from patent US20110047631A1 (MEDICAL COLLEGE OF GEORGIA RESEARCH INSTITUTE, published 2011).

The target in this assay is T1, purified wild-type tau441 (UniProt P10636-8 1-441).
T1 construct: The 441-residue isoform, not the canonical UniProt entry length; Used at 2 uM; also called purified tau 441; purified tau
Description: purified wild-type tau441 and purified Hsp110 incubated together, immunoprecipitation, immunoblot. How it is done:
As the data in FIG. 6 indicates, Hsp110 is present in tau immunocomplexes; however, it is not clear whether the interaction is direct or indirect. In order to determine whether Hsp110 interacts with tau directly, we incubated purified wild-type tau441 and Hsp110 and subjected them to immunoprecipitation analyses.

T1 sequence (P10636 other isoform, or with tags, fused parts or gaps limits assumed): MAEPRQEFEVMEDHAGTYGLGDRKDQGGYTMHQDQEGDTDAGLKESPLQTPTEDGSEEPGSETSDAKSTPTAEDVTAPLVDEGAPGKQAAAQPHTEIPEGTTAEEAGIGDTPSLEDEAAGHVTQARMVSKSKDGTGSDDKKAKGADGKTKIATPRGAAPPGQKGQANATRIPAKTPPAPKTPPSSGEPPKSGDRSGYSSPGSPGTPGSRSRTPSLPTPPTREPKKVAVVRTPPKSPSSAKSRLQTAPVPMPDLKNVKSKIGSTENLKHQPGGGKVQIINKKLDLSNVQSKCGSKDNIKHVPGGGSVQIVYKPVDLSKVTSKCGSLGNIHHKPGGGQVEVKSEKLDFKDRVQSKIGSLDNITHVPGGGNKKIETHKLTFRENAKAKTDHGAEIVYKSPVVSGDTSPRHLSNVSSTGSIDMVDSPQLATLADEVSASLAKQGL

B1: purified full-length Hsp110 (human) (other, UniProt Q92598 2-858, looked up)
chain: SVVGLDVGSQSCYIAVARAGGIETIANEFSDRCTPSVISFGSKNRTIGVAAKNQQITHANNTVSNFKRFHGRAFNDPFIQKEKENLSYDLVPLKNGGVGIKVMYMGEEHLFSVEQITAMLLTKLKETAENSLKKPVTDCVISVPSFFTDAERRSVLDAAQIVGLNCLRLMNDMTAVALNYGIYKQDLPSLDEKPRIVVFVDMGHSAFQVSACAFNKGKLKVLGTAFDPFLGGKNFDEKLVEHFCAEFKTKYKLDAKSKIRALLRLYQECEKLKKLMSSNSTDLPLNIECFMNDKDVSGKMNRSQFEELCAELLQKIEVPLYSLLEQTHLKVEDVSAVEIVGGATRIPAVKERIAKFFGKDISTTLNADEAVARGCALQCAILSPAFKVREFSVTDAVPFPISLIWNHDSEDTEGVHEVFSRNHAAPFSKVLTFLRRGPFELEAFYSDPQGVPYPEAKIGRFVVQNVSAQKDGEKSRVKVKVRVNTHGIFTISTASMVEKVPTEENEMSSEADMECLNQRPPENPDTDKNVQQDNSEAGTQPQVQTDAQQTSQSPPSPELTSEENKIPDADKANEKKVDQPPEAKKPKIKVVNVELPIEANLVWQLGKDLLNMYIETEGKMIMQDKLEKERNDAKNAVEEYVYEFRDKLCGPYEKFICEQDHQNFLRLLTETEDWLYEEGEDQAKQAYVDKLEELMKIGTPVKVRFQEAEERPKMFEELGQRLQHYAKIAADFRNKDEKYNHIDESEMKKVEKSVNEVMEWMNNVMNAQAKKSLDQDPVVRAQEIKTKIKELNNTCEPVVTQPKPKIESPKLERTPNGPNIDKKEEDLEDKNNFGAEPPHQNGECYPNEKNSVNMDLD
notes: mature; used at 2 uM; also called purified Hsp110
In the case of B1, the binding result is on record as “binds”.
